Experiments:
Test in all cases: fluorescence anisotropy
A3H Hap II = A3H Hap II (human, UniProt Q6NTF7 1-181, G105R;K121D;E178D)
A3H Hap VII = A3H Hap VII (human, UniProt Q6NTF7 1-200, G105R)
A3H Hap I K117E/K121E = A3H Hap I K117E/K121E (human, UniProt Q6NTF7 1-200, K117E;K121E)
A3H Hap I K117E = A3H Hap I K117E (human, UniProt Q6NTF7 1-200, K117E)
Chain of A3H Hap I K117E (Q6NTF7 whole entry K117E): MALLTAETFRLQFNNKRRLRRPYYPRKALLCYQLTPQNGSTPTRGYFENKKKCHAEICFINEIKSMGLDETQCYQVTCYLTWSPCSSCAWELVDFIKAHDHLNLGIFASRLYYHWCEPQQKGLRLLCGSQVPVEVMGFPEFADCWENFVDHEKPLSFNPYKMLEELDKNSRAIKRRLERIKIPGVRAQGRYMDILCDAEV

Chain of A3H Hap VII (Q6NTF7 whole entry G105R): as the sequence (Q6NTF7 whole entry K117E) above, with G105R, E117K counted along it
Chain of A3H Hap I K117E/K121E (Q6NTF7 whole entry K117E/K121E): as the sequence (Q6NTF7 whole entry K117E) above, with K121E counted along it
Chain of A3H Hap II (Q6NTF7 1-181 G105R/K121D/E178D): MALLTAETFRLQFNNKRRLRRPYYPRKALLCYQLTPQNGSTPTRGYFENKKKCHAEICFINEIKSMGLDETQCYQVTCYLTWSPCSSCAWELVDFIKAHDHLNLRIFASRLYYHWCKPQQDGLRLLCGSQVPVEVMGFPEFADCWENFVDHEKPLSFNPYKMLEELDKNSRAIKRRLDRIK

B1: 118 nt ssDNA (ssDNA)
DNA: GAATATAGTTTTTAGCTCAAAGTAAGTGAAGATAATTTAGAGAGTTGTAATGTGATATATGTGTATGAAAGATATAAGACTCAAAGTGAAAAGTTGTTAATGTGTGTAGATATGTTAA
modifications: internal fluorescein-dT at position 37 (between S1 and S2)
Question: With B1 as the binder, how does the Kd (A3H Hap II) read?
Answer: The Kd was 492 ± 28 nM.

Question: And the Kd (A3H Hap VII)?
Answer: Its Kd is 522 ± 4 nM.

Question: And the Kd (A3H Hap I K117E/K121E)?
Answer: Its Kd is 1240 ± 88 nM.

Question: And the Kd (A3H Hap I K117E)?
Answer: The Kd was 3000 ± 1770 nM.
